19 molecules from patent US11873336 (TENEOBIO, dated 2024) can be followed below.

Assay [1] deals with T1, human CD22 on CD22-positive Burkitt's lymphoma cells (Daudi, Raji, Ramos) (human, UniProt P20273 20-847).
T1 construct: whole, on cells; also called CD22+ cells; CD22 positive cells
T1 sequence (looked up): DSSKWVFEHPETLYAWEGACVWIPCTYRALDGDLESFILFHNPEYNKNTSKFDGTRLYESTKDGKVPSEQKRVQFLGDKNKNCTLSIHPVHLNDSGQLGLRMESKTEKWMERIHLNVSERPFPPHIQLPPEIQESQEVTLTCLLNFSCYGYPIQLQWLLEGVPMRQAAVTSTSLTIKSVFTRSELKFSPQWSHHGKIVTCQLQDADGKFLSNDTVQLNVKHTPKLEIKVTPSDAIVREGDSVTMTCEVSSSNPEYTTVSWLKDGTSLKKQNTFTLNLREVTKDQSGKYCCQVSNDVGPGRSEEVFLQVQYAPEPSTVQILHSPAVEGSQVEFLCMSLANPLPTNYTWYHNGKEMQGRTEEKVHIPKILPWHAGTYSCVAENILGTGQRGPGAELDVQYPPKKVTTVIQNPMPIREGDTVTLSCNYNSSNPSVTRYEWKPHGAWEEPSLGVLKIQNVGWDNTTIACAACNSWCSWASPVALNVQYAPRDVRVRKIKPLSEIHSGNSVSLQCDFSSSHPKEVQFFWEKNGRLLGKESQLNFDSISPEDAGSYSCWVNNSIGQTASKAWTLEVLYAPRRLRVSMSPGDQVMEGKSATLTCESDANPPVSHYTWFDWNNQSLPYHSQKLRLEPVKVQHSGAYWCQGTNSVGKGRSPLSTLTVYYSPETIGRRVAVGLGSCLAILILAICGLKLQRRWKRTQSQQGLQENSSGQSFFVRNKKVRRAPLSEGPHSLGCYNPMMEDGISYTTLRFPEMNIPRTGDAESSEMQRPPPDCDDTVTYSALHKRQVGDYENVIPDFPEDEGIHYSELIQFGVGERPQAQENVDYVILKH
Kind of assay: cell binding, Daudi cells. As to the method:
Binding to CD22 positive cells was assessed by flow cytometry (Guava easyCyte 8HT, EMD Millipore) using the Daudi cell line (ATCC). Briefly, 100,000 target cells were stained with a dilution series of purified UniAbs™ for 30 minutes at 4° C. Following incubation, the cells were washed twice with flow cytometry buffer (1×PBS, 1% BSA, 0.1% NaN_3) and stained with goat F(ab')2 anti-human IgG conjugated to R-phycoerythrin (PE) (Southern Biotech, cat. #2042-09) to detect cell-bound antibodies. After a 20-minute incubation at 4° C., the cells were washed twice with flow cytometry buffer and then mean fluorescence intensity (MFI) was measured by flow cytometry. EC50 values were calculated using GraphPad Prism 7. Binding to *cynomolgus* CD22 positive cells was determined using the same protocol with the following modifications: the target cells were from CHO cells stably transfected to express the extracellular domain of *cynomolgus* CD22 and each antibody was tested at a single concentration (~1.7 µg/mL) so EC50 values were not calculated.

The target of assay [2] is T2, human CD22 protein (recombinant CD22 extracellular domain) (human, UniProt P20273 20-687).
T2 construct: extracellular domain; also called SIGLEC-2
T2 sequence (looked up): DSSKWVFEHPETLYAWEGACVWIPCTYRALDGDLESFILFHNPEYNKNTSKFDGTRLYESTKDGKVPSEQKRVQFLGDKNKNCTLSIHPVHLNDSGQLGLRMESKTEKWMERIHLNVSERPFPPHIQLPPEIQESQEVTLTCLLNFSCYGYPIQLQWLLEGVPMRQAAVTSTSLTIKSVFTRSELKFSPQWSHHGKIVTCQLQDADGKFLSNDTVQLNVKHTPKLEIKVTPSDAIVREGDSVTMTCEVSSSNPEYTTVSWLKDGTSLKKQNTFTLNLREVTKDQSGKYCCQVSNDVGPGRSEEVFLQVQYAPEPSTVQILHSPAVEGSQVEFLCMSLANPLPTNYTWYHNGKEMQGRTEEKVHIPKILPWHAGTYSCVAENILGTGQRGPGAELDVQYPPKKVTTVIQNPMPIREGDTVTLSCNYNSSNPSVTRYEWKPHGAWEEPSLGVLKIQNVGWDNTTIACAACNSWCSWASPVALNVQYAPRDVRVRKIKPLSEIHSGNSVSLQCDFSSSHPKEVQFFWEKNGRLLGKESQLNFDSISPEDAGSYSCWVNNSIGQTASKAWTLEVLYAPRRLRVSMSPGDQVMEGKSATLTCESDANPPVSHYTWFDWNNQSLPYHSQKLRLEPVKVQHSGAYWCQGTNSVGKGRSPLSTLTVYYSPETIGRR
Nature of the assay: ELISA on recombinant CD22 extracellular domain and/or cell binding.

B1: anti-CD22 heavy chain-only antibody with the VH of SEQ ID NO: 39 (antibody, V domains shown)
VH: QLQLQESGPGLVKPSETLSLTCTVSGDSISSGDYYWGWIRQPPGKGLEWIGHIYYSGATYYNPSLKNRVTISVDTSKNQFSLKLSSVTAADTAVYYCTREDSSNWRSRGQGTLVTVSS
notes: Heavy chain-only antibody (UniAb), human IgG
With B1, the binding result in assay [1] and in assay [2] was “binds” each time.

B2: anti-CD22 heavy chain-only antibody with the VH of SEQ ID NO: 27 (antibody, V domains shown)
VH: QLQLQESGPGLVKPSETLSLTCTVSGDSISSGDYYWGWIRQPPGKGLEWIGHIYYSGVTYYNPSLKNRVTISVDTSRNQFSLNLSSVTAADTAVYYCTREDSSSWRSRGQGTLVTVSS
notes: as for B1
As for B2, the binding result in assay [1] and in assay [2] was “binds” in each case.

B3: anti-CD22 heavy chain-only antibody with the VH of SEQ ID NO: 33 (antibody, V domains shown)
VH: QLQLQESGPGLVKPSETLSLTCTVSGDSISSGDYYWGWIRQPPGKGLEWIGHIYYSGVTYYNPSLKNRVTISVDTSKNQFSLKLSSVTAADTAVYYCTRDDSSNWRSRGQGTLVTVSS
notes: as for B1
As for B3, the binding result in assay [1] and in assay [2] was “binds” each time.

B4: anti-CD22 heavy chain-only antibody with the VH of SEQ ID NO: 40 (antibody, V domains shown)
VH: QLQLQESGPGLVKPSETLSLTCTVSGDSISSGDYYWGWIRQPPGKGLEWIGHIYYSGATYYNPSLKNRVTISVDTSKNQFSLKLSSVTAADTAVYYCTREDSSSWRSRGQGTLVTVSS
notes: as for B1
For B4, the binding result in assay [1] and in assay [2] was “binds” in each case.

B5: anti-CD22 heavy chain-only antibody with the VH of SEQ ID NO: 41 (antibody, V domains shown)
VH: QLQLQESGPGLVKPSETLSLTCTVSGDSISSGDYYWGWIRQPPGKGLEWIGHIYYSGATYYNPSLKNRVTISVDTSRNQFSLKLSSVTAADTAVYYCTREDSSNWRSRGQGTLVTVSS
notes: as for B1
Consider B5, for which the binding result in assay [1] and in assay [2] was “binds” in each case.

B6: anti-CD22 heavy chain-only antibody with the VH of SEQ ID NO: 25 (antibody, V domains shown)
VH: QLQLQESGPGLVKPSETLSLTCTVSGDSISSGDYYWGWIRQPPGKGLEWIGHIYYSGATYYNPSLENRVTISVDTSKNQFSLKLSSVTAADTAVYYCTRDDSSNWRSRGQGTLVTVSS
notes: as for B1
For the molecule B6, the binding result in assay [1] and in assay [2] was “binds” each time.

B7: anti-CD22 heavy chain-only antibody with the VH of SEQ ID NO: 26 (antibody, V domains shown)
VH: QLQLQESGPGLVKPSETLSLTCTVSGDSISSGDYYWGWIRQPPGKGLEWIGHIYYSGVTYYNPSLKNRVTISVDTSKNQFSLKLSSVTAADTAVYYCTREDSSSWRSRGQGTLVTVSS
notes: as for B1
For the molecule B7, the binding result in assay [1] and in assay [2] was “binds” each time.

B8: anti-CD22 heavy chain-only antibody with the VH of SEQ ID NO: 37 (antibody, V domains shown)
VH: QLQLQESGPGLVKPSETLSLTCTVSGDSISSGDYYWGWIRQPPGKGLEWIGHIYYSGVTYYNPSLKNRVTISVDTSKNQFSLKLSSVTAADTAVYYCTREDSSNWRSRGQGTLVTVSS
notes: as for B1
For B8, the binding result in assay [1] and in assay [2] was “binds” in each case.

B9: anti-CD22 heavy chain-only antibody with the VH of SEQ ID NO: 30 (antibody, V domains shown)
VH: QLQLQESGPGLVKPSETLSLTCTVSGDSISSGDYYWGWIRQPPGKGLEWIGHIYYSGATYYNPSLKNRVTISVDTSKNQFSLKLSSVTAADTAVYYCTRDDSSNWRSRGQGTLVTVSS
notes: as for B1
With B9, the binding result in assay [1] and in assay [2] was “binds” in each case.

B10: anti-CD22 heavy chain-only antibody with the VH of SEQ ID NO: 29 (antibody, V domains shown)
VH: QLQLQESGPGLVKPSETLSLTCTVSGDSISSGDYYWGWIRQPPGKGLEWIGHIYYSGATYYNPSLKNRVTISVDTSRNQFSLKLSSVTAADTAVYYCTRDDSSNWRSRGQGTLVTVSS
notes: as for B1
Regarding B10, the binding result in assay [1] and in assay [2] was “binds” throughout.

B11: anti-CD22 heavy chain-only antibody with the VH of SEQ ID NO: 28 (antibody, V domains shown)
VH: QLQLQESGPGLVKPSETLSLTCTVSGDSISSGDYYWGWIRQPPGKGLEWIGHIYYSGATYYNPSLKNRVTISVDTSRNQFSLNLSSVTAADTAVYYCTRDDSSNWRSRGQGTLVTVSS
notes: as for B1
For B11, the binding result in assay [1] and in assay [2] was “binds” each time.

B12: anti-CD22 heavy chain-only antibody with the VH of SEQ ID NO: 38 (antibody, V domains shown)
VH: QLQLQESGPGLVKPSETLSLTCTVSGDSISSGDYYWGWIRQPPGKGLEWIGHIYYSGATYYNPSLKNRVTISVDTSRNQFSLNLSSVTAADTAVYYCTREDSSNWRSRGQGTLVTVSS
notes: as for B1
As to B12, the binding result in assay [1] and in assay [2] was “binds” in each case.

B13: anti-CD22 heavy chain-only antibody with the VH of SEQ ID NO: 31 (antibody, V domains shown)
VH: QLQLQESGPGLVKPSETLSLTCTVSGDSISSGGYYWGWIRQPPGKGLEWIGHIYYSGATYYNPSLKNRVTISVDTSKNQFSLKLSSVTAADTAVYYCTRDDSSNWRSRGQGTLVTVSS
notes: as for B1
For the molecule B13, the binding result in assay [1] and in assay [2] was “binds” in each case.

B14: anti-CD22 heavy chain-only antibody with the VH of SEQ ID NO: 36 (antibody, V domains shown)
VH: QLQLQESGPGLVKPSETLSLTCTVSGDSISSGDYYWGWIRQPPGKGLEWIGHIYYSGATYYNPSLKNRVTISVDTSRNQFSLKLSSVTAADTAVYYCTREDSSSWRSRGQGTLVTVSS
notes: as for B1
B14: the binding result in assay [1] and in assay [2] was “binds” in each case.

B15: anti-CD22 heavy chain-only antibody with the VH of SEQ ID NO: 42 (antibody, V domains shown)
VH: QLQLQESGPGLVKPSETLSLTCTVSGDSISSGDYYWGWIRQPPGKGLEWIGSIYYSGATYYNPSLKNRVTISVDTSKNQFSLKLSSVTAADTAVYYCTRDDSSNWRSRGQGTLVTVSS
notes: as for B1
B15: the binding result in assay [1] and in assay [2] was “binds” each time.

B16: anti-CD22 heavy chain-only antibody with the VH of SEQ ID NO: 32 (antibody, V domains shown)
VH: QLQLQESGPGLVKPSETLSLTCTVSGDSISSGDYYWGWIRQPPGKGLEWIGHIYYSGATYYNPSLKNRVTISVDTSRNQFSLNLSSVTAADTAVYYCTREDSSSWRSRGQGTLVTVSS
notes: as for B1
Take B16: the binding result in assay [1] and in assay [2] was “binds” throughout.

B17: anti-CD22 heavy chain-only antibody with the VH of SEQ ID NO: 24 (antibody, V domains shown)
VH: QLQLQESGPGLVKPSETLSLTCTVSGDSISSGDYYWGWIRQPPGKGLEWIGHIYYSGVTYYNPSLKSRVTISVDTSRNQFSLKLSSVTAADTAVYYCTREDSSNWRSRGQGTLVTVSS
notes: as for B1
As to B17, the binding result in assay [1] and in assay [2] was “binds” in each case.

B18: anti-CD22 heavy chain-only antibody with the VH of SEQ ID NO: 34 (antibody, V domains shown)
VH: QLQLQESGPGLVKPSETLSLTCTVSGDSISSGDYYWGWIRQPPGKGLEWIGHIYYSGVTYYNPSLKNRVTISVDTSRNQFSLKLSSVTAADTAVYYCTREDSSNWRSRGQGTLVTVSS
notes: as for B1
As for B18, the binding result in assay [1] and in assay [2] was “binds” throughout.

B19: anti-CD22 heavy chain-only antibody with the VH of SEQ ID NO: 35 (antibody, V domains shown)
VH: QLQLQESGPGLVKPSETLSLTCTVSGDSISSGDYYWGWIRQPPGKGLEWIGHIYYSGATYYNPSLENRVTISVDTSKNQFSLKLSSVTAADTAVYYCTREDSSSWRSRGQGTLVTVSS
notes: as for B1
For the molecule B19, the binding result in assay [1] and in assay [2] was “binds” each time.
